# T1: TRRAP_(2038-2087) synthetic peptide (N-terminal acetyl (Ac-), C-terminal amide (-NH2))
# T1 construct: transformation/transcription domain-associated protein (TRRAP), residues 2038-2087; also called TRRAP peptide; source: synthetic peptide (GenScript)
# T1 peptide: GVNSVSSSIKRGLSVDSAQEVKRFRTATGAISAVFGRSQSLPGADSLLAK
# T2: Recombinant human TATA binding protein (ab81897, Abcam) (human)
# T2 construct: also called TBP; full-length, human TBP; source: bought: Abcam (ab81897)
# T2 chain: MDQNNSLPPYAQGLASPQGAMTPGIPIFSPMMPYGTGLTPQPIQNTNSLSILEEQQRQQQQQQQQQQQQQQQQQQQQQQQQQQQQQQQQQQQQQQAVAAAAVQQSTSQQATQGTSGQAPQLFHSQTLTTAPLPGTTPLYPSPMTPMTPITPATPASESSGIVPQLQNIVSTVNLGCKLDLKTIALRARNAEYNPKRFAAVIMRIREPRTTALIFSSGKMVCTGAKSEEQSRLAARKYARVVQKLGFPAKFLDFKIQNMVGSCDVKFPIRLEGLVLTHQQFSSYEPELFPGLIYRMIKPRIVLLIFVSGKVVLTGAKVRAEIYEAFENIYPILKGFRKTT
# What was measured:
# [1] = molecular target: T1, TRRAP_(2038-2087) synthetic peptide; assay: native MS; equimolar mixture, 15.5 uM coreMYC and 15 uM TRRAP_(2038-2087) peptide in 100 mM ammonium acetate, no EGCG, sample cone 10 V; details: both partners purified
# [2] = molecular target: T2, Recombinant human TATA binding protein …; assay: native MS; mixture of coreMYC (6) and full-length TBP (10; concentrations printed as mM), ammonium acetate (TBP exchanged into 1 M), no EGCG, sample cone 50 V; details: both partners purified
binder,measurement,setting,value
"MVTELLGGDMVNQSFICDPDDETFIKNIIIQDCMWSGFSAAAKLVSEKLA (c-MYC, residues 101-150 (coreMYC); Cloned into pET-26b(+); also called MYC_(101-150); COnformational REgulator of c-MYC; source: E. coli BL21 (DE3), purified in-house (solubilised from the pellet in urea, His SpinTrap column); not shown: MGHis6, N-terminal, kept) [MGHis6-coreMYC (c-MYC residues 101-150)]",stoichiometry N,[1],1
same,stoichiometry N,[2],1
